Values of other authors in paper PMC9366932.

Target: Asp309 (UniProt position 309, LIAAPDTMSVS)

Question: For “Aromatase (cytochrome P450 19A1), recombinant form referred to as aromatase WT (Homo sapiens)”, which pKa is on record?
Answer: Its pKa is 8.2.
